Where no end group is shown, it is not given here.
Assays:
DRB1*0401 (DR4) = DRB1*0401 (DR4) (Homo sapiens, UniProt P01903+P01911, A100K/A169T/F76Y/I96L/K127E/L162R/M171V/N62H/P40V/Q125Y/R42H/S133A/S149N/S66Y/V115G/V209L/W38E); type: binding
DRB1*1501 (DR15) = DRB1*1501 (DR15) (Homo sapiens, UniProt P01903+P01911); type: binding
DRB1*0101 (DR1) = DRB1*0101 (DR1) (Homo sapiens, UniProt P01903+P01911, A100R/D57E/F55L/F60I/F76Y/I96L/L162R/M171V/P40L/Q125E/R42F/V115G/Y59C); type: binding
DRB1*1101 (DR11) = DRB1*1101 (DR11) (Homo sapiens, UniProt P01903+P01911, A100R/A169T/A87E/I96F/K41T/L162R/M171V/P40S/Q125H/Q178H/Q39Y/Q99D/R42S/S66Y/T262R/V115G/W38E); type: binding
[1] = test system: CD4^+ T cells of HLA class II transgenic mice; type: cell-based
DRB1*1301 (DR13) = DRB1*1301 (DR13) (Homo sapiens, UniProt P01903+P01911, A100E/A169T/K41T/L162R/M171V/P40S/Q125H/Q178H/Q39Y/Q99D/R42S/S66N/T262R/W38E/Y61H); type: binding
DRB1*0701 (DR7) = DRB1*0701 (DR7) (Homo sapiens, UniProt P01903+P01911, A100R/A102G/A103Q/D57E/D86V/E43K/F76Y/K127E/L162R/M171V/P40G/Q125H/Q99D/R33Q/R42Y/R54Q/S133A/S66F/T210M/V115G/Y107V/Y59L/Y89S); type: binding
DRB1*0301 (DR3) = DRB1*0301 (DR3) (Homo sapiens, UniProt P01903+P01911, A100K/A102G/A103R/A169T/F55Y/I96L/K41T/L162R/M171V/P40S/Q125H/Q178H/Q39Y/R42S/S66N/T106N/T262R/W38E/Y61H); type: binding
HLA-DR molecules = type: binding, human

Sequence	Relative binding affinity of peptide to HLA-DR molecules, DR4 (DRB1*0401 (DR4))	Relative binding affinity of peptide to HLA-DR molecules, DR15 (DRB1*1501 (DR15))	Relative binding affinity of peptide to HLA-DR molecules, DR1 (DRB1*0101 (DR1))	Relative binding affinity of peptide to HLA-DR molecules, DR11 (DRB1*1101 (DR11))	CD4 T cell response in LF immunized HLA transgenics [1]	HLA-restriction based on CD4 T cell response class II HLA transgenics after priming with LF [1]	Relative binding affinity of peptide to HLA-DR molecules, DR13 (DRB1*1301 (DR13))	Relative binding affinity of peptide to HLA-DR molecules, DR7 (DRB1*0701 (DR7))	Relative binding affinity of peptide to HLA-DR molecules, DR3 (DRB1*0301 (DR3))	IC50 (DRB1*1301 (DR13); read-out: IC50 of reference peptide) [nM]	Binding across all HLA-DR alleles assayed (HLA-DR molecules)
YLVDGNGRFVFTDITLPNIA	0.3	2	123	45	elicited a T cell response in a single HLA transgenic strain	DR4	>2 733	19	0.3		
EIMKHIVKIEVKGEEAVKKE	567	329	243	4		DQ8	19	249	50		
TERVRLVTRHIYNREE [B1 21-36, reference compound]										37	
PEAFNYMDKFNEQEINLSLE	2	463	2156	2		DQ8	>172	42	>76		
QSDLIKKVTNYLVDGNGRFV	15	0.2	12	139		DR15	38	4	26		strong to moderate binding across all seven HLA-DR alleles
KLITFNVHNRYASNIVESAY	3	5	35	7		DR1, DR4	0.5	72	0.4		
DTGGLIDSPSINLDVRKQYK	935	130	866	179		DR15	8	15	0.3		
LLFTNQLKEHPTDFSVEFLE	6	193	909	148		DQ8	>172	51	>76		
RNKTQEEHLKEIMKHIVKIE	>1 539	>2 184	4810	2		DQ8	8	77	>76		
YGKDALLHEHYVYAKEGYEP	168	4000	199	9		DQ8	6	441	>76		
PKSKIDTKIQEAQLNINQEW [LF584-603]					did not induce any response in any of the HLA transgenics						
NEQEINLSLEELKDQRMLSR [LF 281-300]					did not induce a response in any of the HLA transgenics						
AVDDYAGYLLDKNQSDLVTN	10	0.1	1,380	55	HLA-DR4 and HLA-DR15 restricted	DR4, DR15	>2 733	1,789	42		
KELLNRIQVDSSNPLSEKEK	0	1	146	274		DQ8	1,714	36	1		
YYEIGKILSRDILSKINQPY	19	43	69	0.4		DQ8	5	4	3		
SKKFIDIFKEEGSNLTSYGR	0.2	1	4	0.4	HLA-DR4 and HLA-DR15 restricted	DR4	1,225	302	474		
IGLEIKDVQIIKQSEKEYIRIDAKVVP	919	1	1	73		DR1, DR15	24	7	2		
YVYAKEGYEPVLVIQSSEDY	555	>262	771	14		DR1, DQ8	3	1182	>238		
VLVIQSSEDYVENTEKALNV	29	958	1702	168		DR1	>172	66	82		
SEGFIHEFGHAVDDYAGYLL	46	0.04	5	849	immunodominant epitopes in HLA-DR15 transgenics	DR15	>2 733	131	>1 000		
